Results as given in patent US20090170750A1 (Novo Nordisk, published 2009).

Biological target: purified recombinant human insulin receptor-exon 11 (human) (UniProt P06213)
Experiment: competition with 125I-insulin (SPA)

purified recombinant human insulin receptor-exon 11 (human), sequence (P06213 other isoform, or with tags, fused parts or gaps limits assumed, form in doubt): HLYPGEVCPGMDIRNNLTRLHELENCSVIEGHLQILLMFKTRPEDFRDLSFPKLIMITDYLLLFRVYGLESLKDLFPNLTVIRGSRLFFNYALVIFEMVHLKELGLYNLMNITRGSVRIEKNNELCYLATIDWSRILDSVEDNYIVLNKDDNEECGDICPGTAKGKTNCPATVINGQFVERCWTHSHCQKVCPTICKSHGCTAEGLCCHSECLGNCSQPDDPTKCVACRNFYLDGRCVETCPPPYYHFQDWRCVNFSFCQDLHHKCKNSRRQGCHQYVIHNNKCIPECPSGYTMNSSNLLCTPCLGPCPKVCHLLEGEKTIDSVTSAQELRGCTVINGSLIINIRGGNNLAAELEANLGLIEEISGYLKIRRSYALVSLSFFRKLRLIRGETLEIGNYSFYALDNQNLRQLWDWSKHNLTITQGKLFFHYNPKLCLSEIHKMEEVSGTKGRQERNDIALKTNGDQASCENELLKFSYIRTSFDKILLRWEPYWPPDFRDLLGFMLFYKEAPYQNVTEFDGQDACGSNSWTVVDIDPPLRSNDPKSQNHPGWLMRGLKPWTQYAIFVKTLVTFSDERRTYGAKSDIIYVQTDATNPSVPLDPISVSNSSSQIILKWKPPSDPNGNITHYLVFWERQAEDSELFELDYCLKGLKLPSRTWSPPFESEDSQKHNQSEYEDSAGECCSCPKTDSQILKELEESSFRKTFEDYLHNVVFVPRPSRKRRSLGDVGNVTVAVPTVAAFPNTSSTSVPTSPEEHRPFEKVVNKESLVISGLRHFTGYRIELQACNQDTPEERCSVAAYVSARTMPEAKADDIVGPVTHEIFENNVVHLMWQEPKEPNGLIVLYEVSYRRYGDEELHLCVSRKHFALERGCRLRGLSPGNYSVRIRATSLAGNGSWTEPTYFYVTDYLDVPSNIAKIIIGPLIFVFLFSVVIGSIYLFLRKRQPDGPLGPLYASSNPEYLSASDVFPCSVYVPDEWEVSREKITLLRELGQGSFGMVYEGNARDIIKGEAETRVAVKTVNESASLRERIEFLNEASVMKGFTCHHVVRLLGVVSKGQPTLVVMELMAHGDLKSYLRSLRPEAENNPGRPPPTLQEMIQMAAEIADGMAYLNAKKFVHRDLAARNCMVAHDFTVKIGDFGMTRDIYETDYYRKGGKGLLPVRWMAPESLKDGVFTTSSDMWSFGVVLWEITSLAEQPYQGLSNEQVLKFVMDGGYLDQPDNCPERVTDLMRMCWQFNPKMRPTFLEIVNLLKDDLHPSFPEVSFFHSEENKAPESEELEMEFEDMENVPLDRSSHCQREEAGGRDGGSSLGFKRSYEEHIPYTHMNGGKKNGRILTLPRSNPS

| Substance | IR, binding relative to human insulin [%] |
| --- | --- |
| single-chain insulin PAK 1769062, connecting peptide PVGSSSGK [A18Q_A21G] (from UniProt P01308 25-53; P01308 90-110) (ligand) | 56 |
| single-chain insulin PAK 1769053, connecting peptide GVGSSSGK [A18Q_A21G] (from UniProt P01308 25-53; P01308 90-110) (ligand) | 37 |
| single-chain insulin PAK 1880, connecting peptide VGLSSGQ [B1G_B3Q_A18Q_A21G] (from UniProt P01308 25-53; P01308 90-110) (ligand) | 54 |
| single-chain insulin PAK 1723, connecting peptide VGSSRGK [A21G] (from UniProt P01308 25-53; P01308 90-110) (ligand) | 33 |
| single-chain insulin PAK 1808, connecting peptide AGRGSGK [B1G_B3Q_A18Q_A21G] (from UniProt P01308 25-53; P01308 90-110) (ligand) | 86 |
| single-chain insulin PAK 1769033, connecting peptide PVGSSSGK [A18Q_A21G] (from UniProt P01308 25-53; P01308 90-110) (ligand) | 37 |
| single-chain insulin PAK 1810, connecting peptide TGLGSGQ [A18Q_A21G] (from UniProt P01308 25-53; P01308 90-110) (ligand) | 73 |
| single-chain insulin PAK 1769013, connecting peptide QVGSSSGK [A18Q_A21G] (from UniProt P01308 25-53; P01308 90-110) (ligand) | 33 |
| single-chain insulin PAK 1769040, connecting peptide VVGSSSGK [A18Q_A21G] (from UniProt P01308 25-53; P01308 90-110) (ligand) | 29 |
| single-chain insulin PAK 1744, connecting peptide VGSSSGK [A18Q_A21G] (from UniProt P01308 25-53; P01308 90-110) (ligand) | 80 |
| single-chain insulin PAK 1866, connecting peptide VGLSSGQ [A18Q] (from UniProt P01308 25-53; P01308 90-110) (ligand) | 196 |
| single-chain insulin PAK 1789, connecting peptide VGLRSGK [A18Q_A21G] (from UniProt P01308 25-53; P01308 90-110) (ligand) | 248 |
| single-chain insulin PAK 1785, connecting peptide ASWGSGK [A18Q_A21G] (from UniProt P01308 25-53; P01308 90-110) (ligand) | 136 |
| single-chain insulin PAK 1738, connecting peptide VGSSSGK [A18Q] (from UniProt P01308 25-53; P01308 90-110) (ligand) | 89 |
| single-chain insulin PAK 1860, connecting peptide VGSSSGK [B3K_A18Q_A21G] (from UniProt P01308 25-53; P01308 90-110) (ligand) | 83 |
| single-chain insulin PAK 1824, connecting peptide GRGSGK [B1G_B3Q_A18Q_A21G] (from UniProt P01308 25-53; P01308 90-110) (ligand) | 75 |
| single-chain insulin PAK 1787, connecting peptide VGLSSGQ [A18Q_A21G] (from UniProt P01308 25-53; P01308 90-110) (ligand) | 123 |
| single-chain insulin PAK 1796, connecting peptide AWSGSGK [A18Q_A21G] (from UniProt P01308 25-53; P01308 90-110) (ligand) | 102 |
| single-chain insulin PAK 1791, connecting peptide HGLYSGK [A18Q_A21G] (from UniProt P01308 25-53; P01308 90-110) (ligand) | 226 |
| single-chain insulin PAK 1812, connecting peptide TGLGRGK [A18Q_A21G] (from UniProt P01308 25-53; P01308 90-110) (ligand) | 118 |
| single-chain insulin PAK 1802, connecting peptide AGRGK [A18Q_A21G] (from UniProt P01308 25-53; P01308 90-110) (ligand) | 25 |
| single-chain insulin PAK 1762, connecting peptide AGMGSGP [A18Q_A21G] (from UniProt P01308 25-53; P01308 90-110) (ligand) | 20 |

Next, values leading:

| IR, binding relative to human insulin [%] | Substance |
| --- | --- |
| 49 | single-chain insulin with connecting peptide LGSSGK (SEQ ID NO:113), no PAK number printed (from UniProt P01308 25-53; P01308 90-110) (ligand) |
| 50 | single-chain insulin PAK 1835, connecting peptide TGLGKGQ [B29E_A18Q] (from UniProt P01308 25-53; P01308 90-110) (ligand) |
| 221 | single-chain insulin PAK 1855, connecting peptide VGLYSGK [B28D_A18Q] (from UniProt P01308 25-53; P01308 90-110) (ligand) |
| 38 | single-chain insulin PAK 1892, connecting peptide TGLGSGQ [desB1_B3Q_B10A_A18Q] (from UniProt P01308 26-53; P01308 90-110) (ligand) |
| 40 | single-chain insulin PAK 1854, connecting peptide VGLYSGK [B29E_A18Q] (from UniProt P01308 25-53; P01308 90-110) (ligand) |
| 34 | single-chain insulin with connecting peptide QGSSGK (SEQ ID NO:115), no PAK number printed (from UniProt P01308 25-53; P01308 90-110) (ligand) |
| 34 | single-chain insulin PAK 1891, connecting peptide TGLGSGQ [B10A_A18Q] (from UniProt P01308 25-53; P01308 90-110) (ligand) |
| 35 | single-chain insulin PAK 1875, connecting peptide VGLSSGQ [B28K_B29A_A18Q] (from UniProt P01308 25-53; P01308 90-110) (ligand) |
| 89 | single-chain insulin PAK 1884, connecting peptide VGLSSGQ [B29A_A8K_A18Q] (from UniProt P01308 25-53; P01308 90-110) (ligand) |
| 36 | single-chain insulin with connecting peptide QGSSGK (SEQ ID NO:110), no PAK number printed (from UniProt P01308 25-53; P01308 90-110) (ligand) |
| 92 | single-chain insulin PAK 1846, connecting peptide TGLGKGR [B29A_A18Q] (from UniProt P01308 25-53; P01308 90-110) (ligand) |
| 92 | single-chain insulin PAK 1879, connecting peptide VGLSSGQ [B29A_A18Q] (from UniProt P01308 25-53; P01308 90-110) (ligand) |
| 82 | single-chain insulin PAK 1847, connecting peptide TGLGKGR [B27E_B29A_A18Q] (from UniProt P01308 25-53; P01308 90-110) (ligand) |
| 38 | single-chain insulin PAK 1876, connecting peptide VGLSSGQ [B27K_B29A_A18Q] (from UniProt P01308 25-53; P01308 90-110) (ligand) |
| 37 | single-chain insulin PAK 1816, connecting peptide AGLGSGQ [B3Q_A18Q] (from UniProt P01308 25-53; P01308 90-110) (ligand) |
| 38 | single-chain insulin PAK 1894, connecting peptide TGLGSGQ [desB1_B3Q_B10Q_A18Q] (from UniProt P01308 26-53; P01308 90-110) (ligand) |
| 83 | single-chain insulin PAK 1805, connecting peptide AGRGSGK [B3Q_A18Q_A21G] (from UniProt P01308 25-53; P01308 90-110) (ligand) |
| 301 | single-chain insulin PAK 1864, connecting peptide TGLGSGK [B3K_A18Q_A21G] (from UniProt P01308 25-53; P01308 90-110) (ligand) |
| 60 | single-chain insulin PAK 1849, connecting peptide TGLGKGR [B29E_A18Q] (from UniProt P01308 25-53; P01308 90-110) (ligand) |
| 125 | single-chain insulin PAK 1818, connecting peptide KGLGSGQ [B3Q_B29R_A18Q_A21G] (from UniProt P01308 25-53; P01308 90-110) (ligand) |
| 51 | single-chain insulin PAK 1893, connecting peptide TGLGSGQ [B10Q_A18Q] (from UniProt P01308 25-53; P01308 90-110) (ligand) |
| 69 | single-chain insulin PAK 1869, connecting peptide VGLSSGQ [B22K_B29A_A18Q] (from UniProt P01308 25-53; P01308 90-110) (ligand) |
| 113 | single-chain insulin PAK 1838, connecting peptide TGLGKGQ [B29R_A18Q] (from UniProt P01308 25-53; P01308 90-110) (ligand) |
